The text below walks through data of paper doi:10.1101/152272, “t-Darpp is an elongated monomer that binds to calcium and is phosphorylated by cyclin-dependent kinases 1 and 5” (bioRxiv, 2017).

The data set deals with the molecule itself. Description: cross-linking; glutaraldehyde 0.1% or 1% (v/v), 30 min at 25°C, then SDS-PAGE (10% gel); each protein alone and an equimolar mixture of t-Darpp and Darpp-32.

Broadly, the stoichiometry N is the number of molecules, sites or subunits per partner or assembly.

B1: Darpp-32 (natural protein, UniProt Q9UD71-1 1-204, looked up)
chain: MDPKDRKKIQFSVPAPPSQLDPRQVEMIRRRRPTPAMLFRLSEHSSPEEEASPHQRASGEGHHLKSKRPNPCAYTPPSLKAVQRIAESHLQSISNLNENQASEEEDELGELRELGYPREEDEEEEEDDEEEEEEEDSQAEVLKVIRQSAGQKTTCGQGLEGPWERPPPLDESERDGGSEDQVEDPALSEPGEEPQRPSPSEPGT
notes: Darpp-32, the longer isoform encoded by PPP1R1B, with 36 more residues at the N-terminus than t-Darpp; The printed UniProt entry is the human protein; The construct is probably the whole isoform, because the tail is said to be added to the C-terminus of Darpp-32; also called recombinant Darpp-32; longer isoform of t-Darpp; source: E. coli BL21 DE3, purified (Ni-NTA)
As for B1, the “stoichiometry N” value came to 2.
